In patent publication US20170037133A1:

Legend:
[1] = target: CD155 (PVR) (UniProt P15151); assay: cell-based or functional assay
[2] = target: CD112 (Nectin-2, PVRL2) (UniProt Q92692); assay: cell-based or functional assay
Sequence of UniProt Q92692 (Q92692 32-538 limits assumed): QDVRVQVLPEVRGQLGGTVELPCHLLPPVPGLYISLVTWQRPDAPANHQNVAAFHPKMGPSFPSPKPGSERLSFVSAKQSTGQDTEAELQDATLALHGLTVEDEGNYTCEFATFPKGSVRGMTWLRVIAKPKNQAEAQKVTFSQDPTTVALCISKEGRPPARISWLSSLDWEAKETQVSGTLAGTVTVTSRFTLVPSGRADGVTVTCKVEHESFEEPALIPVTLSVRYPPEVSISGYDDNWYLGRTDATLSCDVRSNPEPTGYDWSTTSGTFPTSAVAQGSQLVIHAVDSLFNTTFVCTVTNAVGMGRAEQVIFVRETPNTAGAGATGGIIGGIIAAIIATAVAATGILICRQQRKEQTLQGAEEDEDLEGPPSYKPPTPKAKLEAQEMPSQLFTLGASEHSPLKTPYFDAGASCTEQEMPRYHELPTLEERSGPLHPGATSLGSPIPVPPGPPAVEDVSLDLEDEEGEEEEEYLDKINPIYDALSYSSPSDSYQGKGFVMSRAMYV

Sequence of UniProt P15151 (P15151 21-417 limits assumed): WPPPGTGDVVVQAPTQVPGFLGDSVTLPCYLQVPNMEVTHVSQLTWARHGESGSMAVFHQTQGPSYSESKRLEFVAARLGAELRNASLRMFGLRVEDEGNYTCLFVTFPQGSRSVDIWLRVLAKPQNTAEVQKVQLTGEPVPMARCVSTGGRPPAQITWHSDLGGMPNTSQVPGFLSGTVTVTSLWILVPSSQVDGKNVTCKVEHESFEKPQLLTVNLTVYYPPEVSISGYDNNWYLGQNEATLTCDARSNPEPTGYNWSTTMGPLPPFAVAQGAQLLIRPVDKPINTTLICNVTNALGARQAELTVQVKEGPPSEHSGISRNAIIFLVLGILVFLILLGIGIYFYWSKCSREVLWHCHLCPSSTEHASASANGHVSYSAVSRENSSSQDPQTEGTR

mouse anti-PVR clone D171 (antibody)
MV4-11 cell lysis in the presence of 0.1 ng/ml AMG 330 [1]: 49.7% | cell kill of MV4-11 (7-AAD positive target cells, 24 h co-culture with PBMCs, no AMG 330) [1]: 33%

mouse anti-PVRL2 clone L14 (antibody)
MV4-11 cell lysis in the presence of 0.1 ng/ml AMG 330 [2]: 57.9% | cell kill of MV4-11 (7-AAD positive target cells, 24 h co-culture with PBMCs, no AMG 330) [2]: 40.4%
